Data: patent US20050287664A1 (published 2005)

Target: T1, full length rat SD (Shen-Dan) protein expressed from pSDf in HEK293T cells (rat, UniProt Q2VWP9 24-1193)
T1 construct: Full-length rat SD amplified from E10.5 rat cDNA and ligated into pEF1/Myc-His (pSDf); also called SD-expressing cells
T1 sequence: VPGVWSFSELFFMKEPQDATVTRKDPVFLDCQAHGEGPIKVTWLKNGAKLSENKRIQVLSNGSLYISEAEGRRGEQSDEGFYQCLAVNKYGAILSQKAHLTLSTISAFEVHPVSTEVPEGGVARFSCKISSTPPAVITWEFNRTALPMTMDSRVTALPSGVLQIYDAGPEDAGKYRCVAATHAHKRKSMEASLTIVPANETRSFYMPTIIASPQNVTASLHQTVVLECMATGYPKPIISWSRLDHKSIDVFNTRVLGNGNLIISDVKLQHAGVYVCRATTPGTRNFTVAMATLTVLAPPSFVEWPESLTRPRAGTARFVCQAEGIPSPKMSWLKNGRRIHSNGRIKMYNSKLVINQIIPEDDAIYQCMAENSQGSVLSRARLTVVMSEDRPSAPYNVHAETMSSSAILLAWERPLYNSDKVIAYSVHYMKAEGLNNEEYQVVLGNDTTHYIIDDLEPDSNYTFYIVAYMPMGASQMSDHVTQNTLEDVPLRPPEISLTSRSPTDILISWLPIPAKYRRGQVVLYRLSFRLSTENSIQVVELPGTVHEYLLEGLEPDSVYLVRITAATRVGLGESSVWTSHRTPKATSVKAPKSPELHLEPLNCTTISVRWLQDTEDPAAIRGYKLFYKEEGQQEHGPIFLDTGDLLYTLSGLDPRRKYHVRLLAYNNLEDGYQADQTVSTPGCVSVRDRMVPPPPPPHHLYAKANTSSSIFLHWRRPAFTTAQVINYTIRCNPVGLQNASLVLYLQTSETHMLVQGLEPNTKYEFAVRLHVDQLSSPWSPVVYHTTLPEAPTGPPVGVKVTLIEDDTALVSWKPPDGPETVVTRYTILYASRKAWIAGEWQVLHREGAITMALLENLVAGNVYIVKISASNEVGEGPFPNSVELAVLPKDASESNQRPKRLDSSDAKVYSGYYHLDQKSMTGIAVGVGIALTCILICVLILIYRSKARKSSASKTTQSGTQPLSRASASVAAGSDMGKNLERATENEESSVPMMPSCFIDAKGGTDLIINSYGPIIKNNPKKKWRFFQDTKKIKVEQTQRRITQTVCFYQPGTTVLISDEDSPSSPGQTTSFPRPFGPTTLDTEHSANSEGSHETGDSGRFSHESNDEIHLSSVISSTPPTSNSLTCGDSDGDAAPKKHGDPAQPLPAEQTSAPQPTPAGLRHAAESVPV
Assay: in situ binding assay, conditioned medium on pSDf-transfected HEK293T cells, immunofluorescence (anti-myc 9E10)
Source text: HEDJ/ERdj3 binds to the SD extracellular domain. a, Schematic representation of eight HEDJ/ERdj3 clones identified by yeast two-hybrid screening and their interaction with the SD extracellular domain, shown as activity in an X-gal assay. b, Various sd deletion mutants were examined for their ability to interact with C-terminal HEDJ/ERdj3. c, HEK293T cells were transiently transfected with pHEDJ or a control vector. Three days after transfection, conditioned medium (CM) and total cell lysate (TCL) were subjected to Western blotting to detect HEDJ/ERdj3 using anti-myc antibody. d, Quantification of HEDJ/ERdj3 binding to SD-expressing cells. HEK293T cells were transiently transfected with pSDf or control vector. SD expression was detected by W4 antiserum. Binding of HEDJ/ERdj3 on the cells was detected by anti-myc mAb. Cell nuclei were visualized by DAPI. […] Data were normalized relative to fluorescence intensity of the cells transfected with pSDf in the presence of control CM. Results are shown as means±s.e.m., from a total of 50 cells. (*, p<0.001; by student's t-test).
HEK293T cells were transfected with pSDf using FuGENE 6 (Roche). […] The fluorescence signal was quantified using ImageJ software (NIH, Bethesda, Md., USA).

B1: C-terminal His-myc-tagged HEDJ/ERdj3 protein secreted from pHEDJ-transfected HEK293T cells (ligand, mouse, UniProt Q99KV1 23-358, looked up)
chain: GRDFYKILGVPRSASIKDIKKAYRKLALQLHPDRNPDDPQAQEKFQDLGAAYEVLSDSEKRKQYDTYGEEGLKDGHQSSHGDIFSHFFGDFGFMFGGTPRQQDRNIPRGSDIIVDLEVTLEEVYAGNFVEVVRNKPVARQAPGKRKCNCRQEMRTTQLGPGRFQMTQEVVCDECPNVKLVNEERTLEVEIEPGVRDGMEYPFIGEGEPHVDGEPGDLRFRIKVVKHRIFERRGDDLYTNVTVSLVEALVGFEMDITHLDGHKVHISRDKITRPGAKLWKKGEGLPNFDNNNIKGSLIITFDVDFPKEQLTEEAKEGIKQLLKQGPVQKVYNGLQGY
notes: mature; also called secreted HEDJ/ERdj3; not shown: C-terminal His-myc tag from pEF1/Myc-His
Q: Does B1 bind?
A: binds
